Assay results from patent publication US20230381316A1 (METHODIST HOSPITAL, published 2023).
Numbering of substitutions follows the chain as printed.

Assays:
[1] = molecular target: T1, prostate-specific membrane antigen (PSMA) on PSMA-positive prostate cancer cells (LNCaP, VCaP) (human, UniProt Q04609 1-750); assay: flow cytometry on LNCaP cells
T1 construct: Endogenous PSMA on LNCaP and VCaP cells; also called FOLH1; PSMA antigen on cancer cell surface

[2] = molecular target: T1, prostate-specific membrane antigen …; assay: flow cytometry on mixed PC3 and LNCaP cells, 20 µg antibody, FITC anti-mouse IgG
Description: Next, the cells were incubated with FITC anti-mouse IgG secondary antibody (Biolegend, cat #406001), followed by flow cytometric analysis.

[3] = molecular target: T2, Fluorescence-labeled PSMA protein (biotin-labelled purified PSMA protein with Alexa Fluor 647 Streptavidin) (human, UniProt Q04609 44-750, biotin label (EZ link Sulfo-NHS-Biotin), incubated with Alexa Fluor 647 Streptavidin); assay: flow cytometry of CAR T cells with fluorescence labeled recombinant PSMA protein as probe
T2 construct: This is the purified PSMA protein of m9 after labelling; also called fluorescence labeled recombinant PSMA protein; home-made fluorescent probe
T2 sequence (Q04609 44-750): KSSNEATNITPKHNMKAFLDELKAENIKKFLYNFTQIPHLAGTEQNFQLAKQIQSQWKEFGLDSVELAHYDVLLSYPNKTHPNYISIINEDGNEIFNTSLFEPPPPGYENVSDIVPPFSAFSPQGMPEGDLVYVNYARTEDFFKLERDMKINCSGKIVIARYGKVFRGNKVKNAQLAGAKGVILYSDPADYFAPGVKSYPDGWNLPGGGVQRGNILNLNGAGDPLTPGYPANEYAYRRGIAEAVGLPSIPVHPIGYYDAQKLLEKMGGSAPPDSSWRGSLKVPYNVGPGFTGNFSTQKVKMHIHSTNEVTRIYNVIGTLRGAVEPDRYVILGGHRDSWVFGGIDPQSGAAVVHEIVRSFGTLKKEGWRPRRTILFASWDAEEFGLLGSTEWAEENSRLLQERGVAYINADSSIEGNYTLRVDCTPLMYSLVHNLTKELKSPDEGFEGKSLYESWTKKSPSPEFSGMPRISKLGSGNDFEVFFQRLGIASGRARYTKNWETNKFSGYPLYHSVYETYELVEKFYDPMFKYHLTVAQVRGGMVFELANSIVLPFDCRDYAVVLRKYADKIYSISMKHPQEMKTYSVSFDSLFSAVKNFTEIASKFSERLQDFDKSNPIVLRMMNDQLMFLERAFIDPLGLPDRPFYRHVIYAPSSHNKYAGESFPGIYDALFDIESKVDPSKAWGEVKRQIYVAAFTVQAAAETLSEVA
Text: (A3). In vitro cytotoxicity of PSMA-CAR T cells. Human peripheral blood mononuclear cells (PBMC) were isolated from leukopak following a SOP published by Hanc (HIV/ADIS Network Coordination). T cells including CD4+ and CD8+ T cells were isolated from PBMC with human T cell isolation kit (Miltenyi Biotec). T cells were activated by Dvnabeads human T-Activator CD3/CD28 (ThermoFisher) for 24 hrs, then transduced with lentiviruses expressing PSMA-CARs. Transduced cells were expanded for 8 to 21 days in culture. Flow cytometry was performed to determine the percentage of T cells that express functional CAR. To prepare home-made fluorescent probe, we labeled purified PSMA protein with biotin using EZ link Sulfo-NHS-Biotin (ThermoFisher), then incubated with Alexa Fluor® 647 Streptavidin (BioLegend) to obtain the probe.
For IFNγ induction (FIGS. 14C, 14D)), 4LH-CAR, 7LH-CAR, 5LH-CAR appeared to be the strongest. […] We also tested the in vitro killing on PSMA-positive VCaP cells, PSMA-negative wild type PC3 cells, and PSMA-positive PC3-PSMA stable cells. As anticipated, the PSMA-CAR T cell cytotoxicity IFNγ induction were strictly PSMA-dependent. Moreover, using fluorescence labeled recombinant PSMA protein as probe, flow cytometry analysis was performed on non-transduced and 11 PSMA-CAR T cells.

T1 sequence (Q04609 whole entry): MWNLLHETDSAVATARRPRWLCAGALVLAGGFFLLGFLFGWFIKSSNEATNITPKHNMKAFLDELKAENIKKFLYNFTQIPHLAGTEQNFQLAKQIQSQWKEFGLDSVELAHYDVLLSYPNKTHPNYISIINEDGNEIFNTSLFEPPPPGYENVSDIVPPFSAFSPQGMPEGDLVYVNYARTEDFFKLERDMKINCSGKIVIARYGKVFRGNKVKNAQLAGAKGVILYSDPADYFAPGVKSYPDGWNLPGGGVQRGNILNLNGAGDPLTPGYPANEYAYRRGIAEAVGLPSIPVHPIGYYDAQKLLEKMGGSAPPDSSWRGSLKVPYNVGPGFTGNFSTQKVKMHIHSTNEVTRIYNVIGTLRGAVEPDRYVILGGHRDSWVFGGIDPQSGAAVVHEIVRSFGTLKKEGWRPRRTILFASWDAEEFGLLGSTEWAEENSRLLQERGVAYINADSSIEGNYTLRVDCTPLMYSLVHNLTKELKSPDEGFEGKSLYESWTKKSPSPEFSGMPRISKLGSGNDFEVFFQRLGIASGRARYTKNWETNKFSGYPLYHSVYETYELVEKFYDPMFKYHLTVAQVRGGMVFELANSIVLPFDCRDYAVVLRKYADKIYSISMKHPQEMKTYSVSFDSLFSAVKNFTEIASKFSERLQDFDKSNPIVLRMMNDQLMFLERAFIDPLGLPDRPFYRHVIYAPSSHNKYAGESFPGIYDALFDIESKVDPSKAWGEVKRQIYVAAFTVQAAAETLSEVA

B1: anti-PSMA mouse monoclonal antibody #219 (antibody, V domains shown)
VH: VQLQQSGPELEKPGASVKMSCKASGYSFTGYNVNWVRQNNGKSLEWIGNIDPLHGGTTYNQKFKAKATLTVDRSSSTAYLQLKNLTSEDSAVYYCARSSRFDYWGQGTTLTVSS
VL: DIVMTQSHKFMSTSVGDRVNITCKASQDVGTAVAWYQQKPGQSPKLLIYWASTRHTGVPDRFTGSGSGTDFTLTISNVQSEDLADYFCHQFTSYPFTFGSGTSLEMKR
notes: Full-length mouse IgG from a hybridoma
binding result [1]: binds

B2: anti-PSMA mouse monoclonal antibody #1352 (antibody, IgG2b, V domains shown)
VH: B1 VH with Q2K, M19I, R37K, N39S, L53Y, K64E, R73K, L80M, N84S
VL: B1 VL with L46F, F91Y, S103K
binding result [2]: binds

B3: PSMA(444)-CAR (CAR PMC 444, clone 219, VH-linker-VL) (other)
chain: VQLQQSGPELEKPGASVKMSCKASGYSFTGYNVNWVRQNNGKSLEWIGNIDPLHGGTTYNQKFKAKATLTVDRSSSTAYLQLKNLTSEDSAVYYCARSSRFDYWGQGTTLTVSSGGGGSGGGGSGGGGSDIVMTQSHKFMSTSVGDRVNITCKASQDVGTAVAWYQQKPGQSPKLLIYWASTRHTGVPDRFTGSGSGTDFTLTISNVQSEDLADYFCHQFTSYPFTFGSGTSLEMKRTTTPAPRPPTPAPTIASQPLSLRPEACRPAAGGAVHTRGLDFACDIYIWAPLAGTCGVLLLSLVITLYCKRGRKKLLYIFKQPFMRPVQTTQEEDGCSCRFPEEEEGGCELRVKFSRSADAPAYKQGQNQLYNELNLGRREEYDVLDKRRGRDPEMGGKPRRKNPQEGLYNELQKDKMAEAYSEIGMKGERRRGKGHDGLYQGLSTATKDTYDALHMQALPPR
notes: Chimeric antigen receptor (scFv-CD8a TM-4-1BB-CD3zeta) on transduced human T cells; also called PMC444 CAR
percentage of CAR T cells positive for PSMA binding [3]: 47.1%

B4: PSMA(447)-CAR (CAR PMC 447, clone 1352, VH-linker-VL) (other)
chain: VKLQQSGPELEKPGASVKISCKASGYSFTGYNVNWVKQSNGKSLEWIGNIDPYHGGTTYNQKFEAKATLTVDKSSSTAYMQLKSLTSEDSAVYYCARSSRFDYWGQGTTLTVSSGGGGSGGGGSGGGGSDIVMTQSHKFMSTSVGDRVNITCKASQDVGTAVAWYQQKPGQSPKFLIYWASTRHTGVPDRFTGSGSGTDFTLTISNVQSEDLADYFCHQYTSYPFTFGSGTKLEMKRTTTPAPRPPTPAPTIASQPLSLRPEACRPAAGGAVHTRGLDFACDIYIWAPLAGTCGVLLLSLVITLYCKRGRKKLLYIFKQPFMRPVQTTQEEDGCSCRFPEEEEGGCELRVKFSRSADAPAYKQGQNQLYNELNLGRREEYDVLDKRRGRDPEMGGKPRRKNPQEGLYNELQKDKMAEAYSEIGMKGERRRGKGHDGLYQGLSTATKDTYDALHMQALPPR
notes: Chimeric antigen receptor on transduced human T cells; also called PMC447 CAR
percentage of CAR T cells positive for PSMA binding [3]: 3.08%

B5: PSMA(446)-CAR (CAR PMC 446, clone 1366, VH-linker-VL) (other)
chain: VKLQESGPGLVAPSQSLSITCTVSGFSLTDYGVSWIRQPPGKGLEWLGVIWSDGNTYYNSPLKSRLSINKDNSKSQVFLKMNSLQTDDSAMYYCARHKVYTMDYWGQGTSVTVSSGGGGSGGGGSGGGGSTVLTQSPAIMSASPGEKVTMTCRASSSVSSSYLHWYQQKSSASPKLWIYRTSNLASGVPARFSGSGSGTSYSLTISSLEAEDAATYYCQQYSGYPLTFGAGTKLELKRTTTPAPRPPTPAPTIASQPLSLRPEACRPAAGGAVHTRGLDFACDIYIWAPLAGTCGVLLLSLVITLYCKRGRKKLLYIFKQPFMRPVQTTQEEDGCSCRFPEEEEGGCELRVKFSRSADAPAYKQGQNQLYNELNLGRREEYDVLDKRRGRDPEMGGKPRRKNPQEGLYNELQKDKMAEAYSEIGMKGERRRGKGHDGLYQGLSTATKDTYDALHMQALPPR
notes: Chimeric antigen receptor on transduced human T cells; also called PMC446 CAR
percentage of CAR T cells positive for PSMA binding [3]: 19.6%

B6: PSMA(448)-CAR (CAR PMC 448, clone 1207, VH-linker-VL) (other)
chain: VKLQQSGPGLVKPSQSLSLTCAVTGYSITSDYAWNWIRKFPGNKLEWMGYISYSGRTTYNPSLESRISITRDTSKNQFFLQLNSVTTEDTATYYCARCYYGSSSRWYGMDYWGRGTSVAVSSGGGGSGGGGSGGGGSIVLTQSPAIMSASPGVKVTMTCRASSSVDSSYLHWYQQKSGASPQVWIYSTSNLASGVPARFSGSGSGTSYSLTISSVEAEDAATYYCQQYSGYPLTFGGGTKLEIKRTTTPAPRPPTPAPTIASQPLSLRPEACRPAAGGAVHTRGLDFACDIYIWAPLAGTCGVLLLSLVITLYCKRGRKKLLYIFKQPFMRPVQTTQEEDGCSCRFPEEEEGGCELRVKFSRSADAPAYKQGQNQLYNELNLGRREEYDVLDKRRGRDPEMGGKPRRKNPQEGLYNELQKDKMAEAYSEIGMKGERRRGKGHDGLYQGLSTATKDTYDALHMQALPPR
notes: Chimeric antigen receptor on transduced human T cells; also called PMC448 CAR
percentage of CAR T cells positive for PSMA binding [3]: 2.23%

B7: PSMA(6LH)-CAR, derived from antibody #1366 (VL-linker-VH) (other)
chain: TVLTQSPAIMSASPGEKVTMTCRASSSVSSSYLHWYQQKSSASPKLWIYRTSNLASGVPARFSGSGSGTSYSLTISSLEAEDAATYYCQQYSGYPLTFGAGTKLELKRGGGGSGGGGSGGGGSVKLQESGPGLVAPSQSLSITCTVSGFSLTDYGVSWIRQPPGKGLEWLGVIWSDGNTYYNSPLKSRLSINKDNSKSQVFLKMNSLQTDDSAMYYCARHKVYTMDYWGQGTSVTVSSTTTPAPRPPTPAPTIASQPLSLRPEACRPAAGGAVHTRGLDFACDIYIWAPLAGTCGVLLLSLVITLYCKRGRKKLLYIFKQPFMRPVQTTQEEDGCSCRFPEEEEGGCELRVKFSRSADAPAYKQGQNQLYNELNLGRREEYDVLDKRRGRDPEMGGKPRRKNPQEGLYNELQKDKMAEAYSEIGMKGERRRGKGHDGLYQGLSTATKDTYDALHMQALPPR
notes: Chimeric antigen receptor on transduced human T cells
percentage of CAR T cells positive for PSMA binding [3]: 17.8%

B8: PSMA(7LH)-CAR, derived from antibody #1352 (VL-linker-VH) (other)
chain: DIVMTQSHKFMSTSVGDRVNITCKASQDVGTAVAWYQQKPGQSPKFLIYWASTRHTGVPDRFTGSGSGTDFTLTISNVQSEDLADYFCHQYTSYPFTFGSGTKLEMKRGGGGSGGGGSGGGGSVKLQQSGPELEKPGASVKISCKASGYSFTGYNVNWVKQSNGKSLEWIGNIDPYHGGTTYNQKFEAKATLTVDKSSSTAYMQLKSLTSEDSAVYYCARSSRFDYWGQGTTLTVSSTTTPAPRPPTPAPTIASQPLSLRPEACRPAAGGAVHTRGLDFACDIYIWAPLAGTCGVLLLSLVITLYCKRGRKKLLYIFKQPFMRPVQTTQEEDGCSCRFPEEEEGGCELRVKFSRSADAPAYKQGQNQLYNELNLGRREEYDVLDKRRGRDPEMGGKPRRKNPQEGLYNELQKDKMAEAYSEIGMKGERRRGKGHDGLYQGLSTATKDTYDALHMQALPPR
notes: as for B7
percentage of CAR T cells positive for PSMA binding [3]: 35.5%

B9: PSMA(8LH)-CAR, derived from antibody #1207 (VL-linker-VH) (other)
chain: IVLTQSPAIMSASPGVKVTMTCRASSSVDSSYLHWYQQKSGASPQVWIYSTSNLASGVPARFSGSGSGTSYSLTISSVEAEDAATYYCQQYSGYPLTFGGGTKLEIKRGGGGSGGGGSGGGGSVKLQQSGPGLVKPSQSLSLTCAVTGYSITSDYAWNWIRKFPGNKLEWMGYISYSGRTTYNPSLESRISITRDTSKNQFFLQLNSVTTEDTATYYCARCYYGSSSRWYGMDYWGRGTSVAVSSTTTPAPRPPTPAPTIASQPLSLRPEACRPAAGGAVHTRGLDFACDIYIWAPLAGTCGVLLLSLVITLYCKRGRKKLLYIFKQPFMRPVQTTQEEDGCSCRFPEEEEGGCELRVKFSRSADAPAYKQGQNQLYNELNLGRREEYDVLDKRRGRDPEMGGKPRRKNPQEGLYNELQKDKMAEAYSEIGMKGERRRGKGHDGLYQGLSTATKDTYDALHMQALPPR
notes: as for B7
percentage of CAR T cells positive for PSMA binding [3]: 16%

B10: anti-PSMA mouse monoclonal antibody #1207 (antibody, V domains shown)
VH: VKLQQSGPGLVKPSQSLSLTCAVTGYSITSDYAWNWIRKFPGNKLEWMGYISYSGRTTYNPSLESRISITRDTSKNQFFLQLNSVTTEDTATYYCARCYYGSSSRWYGMDYWGRGTSVAVSS
VL: IVLTQSPAIMSASPGVKVTMTCRASSSVDSSYLHWYQQKSGASPQVWIYSTSNLASGVPARFSGSGSGTSYSLTISSVEAEDAATYYCQQYSGYPLTFGGGTKLEIKR
notes: as for B1
binding result [1]: binds

B11: anti-PSMA mouse monoclonal antibody #1366 (antibody, V domains shown)
VH: VKLQESGPGLVAPSQSLSITCTVSGFSLTDYGVSWIRQPPGKGLEWLGVIWSDGNTYYNSPLKSRLSINKDNSKSQVFLKMNSLQTDDSAMYYCARHKVYTMDYWGQGTSVTVSS
VL: B10 VL with I1T, V16E, D29S, G41S, Q45K, V46L, S50R, V78L, G100A, I106L
notes: as for B1
binding result [1]: binds

B12: anti-PSMA mouse monoclonal antibody #1377 (antibody, V domains shown)
VH: VQLQQPGAALVRPGASVRLSCKASGYSFTYYWMNWVMQRPGQGLEWIGMIHPSDSETRLSQKFRDKATLTVDKSSSTVYMQLNSPTSDDSAVYYCARDGNFPYYALDYWGQGTSVTVSS
VL: DVVLTQAPLSLPVSLGDQASISCRSSQSLEYSNGNTYLHWYLQKPGQSPELLIYTVSNRFSGVPDRFSGSGSGTDFTLKIHRVEAEDLGVYFCSQSTHVPTFGGGTKLEIKR
notes: as for B1
binding result [1]: binds
